# Data as given in US20200140512A1 (Xencor, published 2020).
# How the values were obtained:
# human PD-1-His [1] = target: T1, human PD-1-His (human, UniProt Q15116 25-167, limits assumed); assay: Octet (Example 7A, told again)
# T1 construct: not shown: His tag
# human PD-1-His [2] = target: T1, human PD-1-His; assay: Octet, antibody captured on anti-human Fc (AHC) biosensors, dipped into multiple concentrations of PD-1-His
# [3] = target: T2, PD-1 (antigen of the Octet affinity measurements of Example 9 and of the affinities quoted afterwards) (UniProt Q15116 25-167, limits assumed); assay: Octet affinity screen, bivalent IgG1 format
# T2 construct: most likely human PD-1-His
# human PD-1-His [4] = target: T1, human PD-1-His; assay: Octet, antibody on AHC biosensors, multiple concentrations of PD-1-His
# T1 sequence (Q15116 25-167 limits assumed): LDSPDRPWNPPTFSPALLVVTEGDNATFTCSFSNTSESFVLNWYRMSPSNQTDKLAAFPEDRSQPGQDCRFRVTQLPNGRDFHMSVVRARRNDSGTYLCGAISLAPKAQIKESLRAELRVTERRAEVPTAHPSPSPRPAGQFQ
# T2 sequence (Q15116 25-167 limits assumed): as above
binding result (human PD-1-His [2]),fold improved affinity over WT [3],Binder,other results
no binding,–,"XENP28538 (humanized variant of anti-PD-1 mAb C, bivalent human IgG1) (antibody, V domains shown, Human IgG1 with E233P/L234V/L235A/G236del/S267K) VH: EVQLVESGGGLVKPGGSLRLSCAASGFTFSSFGMHWVRQAPGKGLEWVGYISSGSSIIYYADPVKGRFTISRDNSKNTLYLQMNSLKTEDTAVYYCARGGRLVWSPDYWGQGTLVTVSS VL: DIVMTQSPDSLAVSLGERATINCKSSQSLLNSGNQKNYLTWYQQKPGQPPKLLIYWASTRESGVPDRFTGSGSGTDFTLTISSLQAEDVAVYYCQNDYSYPFTFGSGTKLEIKR",–
no binding,–,"XENP28539 (humanized variant of anti-PD-1 mAb C, bivalent human IgG1) (antibody, V domains shown, Human IgG1 with E233P/L234V/L235A/G236del/S267K) VH: EVQLVESGGGLVKPGGSLRLSCAASGFTFSSFGMHWVRQAPGKGLEWVGYISSGSSIIYYADPVKGRFTISRDNSKNTLYLQMNSLKTEDTAVYYCARGGRLVWSPDYWGQGTLVTVSS VL: DIVMTQSPLSLPVTPGEPASISCRSSQSLLNSGNQKNYLTWYLQKPGQPPQLLIYWASTRESGVPDRFTGSGSGTDFTLKISRVEAEDVGVYYCQNDYSYPFTFGSGTKLEIKR",–

# More lines, now with the values behind:
Binder,binding result (human PD-1-His [2]),fold improved affinity over WT [3],other results
"XENP28536 (bivalent mAb based on humanized mAb C, mAb C[PD-1]_H1L1) (antibody, human IgG1, V domains shown, also called WT) VH: EVQLVESGGGLVQPGGSLRLSCAASGFTFSSFGMHWVRQAPGKGLEWVSYISSGSSIIYYADSVKGRFTISRDNAKNSLYLQMNSLRAEDTAVYYCARGGRLVWSPDYWGQGTLVTVSS VL: DIVMTQSPDSLAVSLGERATINCKSSQSLLNSGNQKNYLTWYQQKPGQPPKLLIYWASTRESGVPDRFTGSGSGTDFTLTISSLQAEDVAVYYCQNDYSYPFTFGSGTKLEIK",–,–,binding result (human PD-1-His [1]): binds
"mAb C[PD-1]_H1_L1.1 (bivalent IgG1 format with E233P/L234V/L235A/G236_/S267K ablation variants) (antibody, V domains shown, Human IgG1 with ablation variants; copies: 2 + 2) VH: EVQLVESGGGLVQPGGSLRLSCAASGFTFSSFGMHWVRQAPGKGLEWVSYISSGSSIIYYADSVKGRFTISRDNAKNSLYLQMNSLRAEDTAVYYCARGGRLVWSPDYWGQGTLVTVSS VL: DIVMTQSPDSLAVSLGERATINCKSSQSLLHSGNQKNYLTWYQQKPGQPPKLLIYWASTRESGVPDRFTGSGSGTDFTLTISSLQAEDVAVYYCQNDYSYPFTFGSGTKLEIKR",–,2 fold,–
"mab_C[PD-1]_H1_L1.3 (bivalent IgG1 format with E233P/L234V/L235A/G236_/S267K ablation variants) (antibody, V domains shown, Human IgG1 with ablation variants; copies: 2 + 2) VH: EVQLVESGGGLVQPGGSLRLSCAASGFTFSSFGMHWVRQAPGKGLEWVSYISSGSSIIYYADSVKGRFTISRDNAKNSLYLQMNSLRAEDTAVYYCARGGRLVWSPDYWGQGTLVTVSS VL: DIVMTQSPDSLAVSLGERATINCKSSQSLLSSGNQKNYLTWYQQKPGQPPKLLIYWASTRESGVPDRFTGSGSGTDFTLTISSLQAEDVAVYYCQNDYSYPFTFGSGTKLEIKR",–,> 2 fold,–
"XENP28519 (bivalent mAb based on humanized mAb A) (antibody, human IgG1, kappa, V domains shown, also called anti-PD-1 mAb XENP28519) VH: QVQLQESGPGLVKPSQTLSLTCTVSGHSITSDYAWNWIRQPPGKKLEWIGYISYSGYTTYNPSLKSRVTISRDTSKNQFSLKLSSVTAADTAVYFCARDLDYGPWFAYWGQGTLVTVSS VL: DIQMTQSPSSLSASVGDRVTITCRASENIHNYLAWYQQKPGKSPKLLVYNVKTLADGVPSRFSGSGSGTDYTLTISSLQPEDFATYYCQHFWSSPWTFGGGTKVEIKR",–,–,binding result (human PD-1-His [4]): binds
